# Reference: the RNAGym collection of RNA variant scans (doi:10.1073/pnas.2313332121)
# B1: TPR t1 (parent)
# chain: GACCAAUCUGCCCUCAGAGCUCGAGAACAUCUUCGGAUGCAGAGGAGGCAGGCUUCGGUGGCGCGAUAGCGCCAACGUCCUCAACCUCCAAUGCAUCCCACCACAUGAUGAUGCCUGAAGAGCCUUGGUUUUUUG
# Variants of: B1
# Test: polymerase ribozyme fitness, log enrichment relative to wild type (log ratio); higher = more active; in vitro selection for triplet polymerase activity
# Summary of the method: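 Each subunit of a heterodimeric triplet polymerase ribozyme was represented by a PCR-built, transcribed mutant library that underwent triplicate single-round in vitro selection with frozen incubation at −7 °C. Extended constructs were recovered by gel excision, streptavidin-bead capture and RT-PCR, and Illumina sequencing of input and output libraries kept genotypes with ≥10 input reads and ≥1 read per output. Fitness is the logarithm of genotype enrichment relative to wild-type enrichment, from inverse-variance-weighted replicate averages, with a logarithm base of 2.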
row,Variant,polymerase ribozyme fitness (log ratio)
1,C12A C28U G44A C49G C72U C86A,-4.58
2,C12A A37C A50G C53A,-0.87
3,C12A C62A C72U C98U U126C,-2.97
4,C11U G60A G61U U78C C86G,-4.45
5,C12A G47C C70U,-0.753
6,C12A C40A C72A U130A,-2.02
7,C11U G44C G61U C104U U116C,-2.32
8,C12A G51U C64U A90G,-2.6
9,C12A A27U G63A,-5.2
10,C12A C40U U59A A111G C124A,-0.777
11,C12G A26C G60U,-3.25
12,C12A G19U C73A G77C,-5.03
13,C12A C15U U21A G39A,-1.06
14,C12A G107C A119C G120A,-4.18
15,C12A A29U G93U,-2.79
16,C11U G47A G71C C86U,-0.929
17,C12A A121U,1.74
18,C12G A27U C56U C101G C102A C104G C114U,-5.64
19,C11U G52A G57U A95U,-1.32
20,C12A C85G,-2.79
21,C12A A46U,-1.75

row,Variant,polymerase ribozyme fitness (log ratio)
1,C12A C49G G63C C86G U131G,-3.12
2,C12A C40A C86A C101U U106G,-5.32
3,C12A A27G G93A,-5.16
4,C12A A74C G93A C124U U132A,-1.34
5,C12A U32C U96A G122C C123G U131A,-0.725
6,C12A U33C A103C G113U C114G G127U,-6.43
7,C12A G69C C85A G113U G127A U130C,-7.98
8,C12A C15A C72U C79A C88A,-5.1
9,C12A G51A,-2.41
10,C12A G51C,-4.5
11,C11U U116G G122A C124U,0.369
12,C12A G48U,-2.61
13,C11U G120U G122U,1.38
14,C11U G42A,-2.48
15,C12A G45C G63U,-2.35
16,C11U G45A C89G A121G,0.687
17,C12A G63C C102G C104U G113A,-7.42
18,C12A G48U C98U,-2.11
19,C12G A16U G45U C89G U129C,-4.69
20,C12A G39C G47A A66U,-3.14
21,C12A C70A C85G U116C,-4.83

row,Variant,polymerase ribozyme fitness (log ratio)
1,C12A G110C,-3.17
2,C11U G51U A119U,-3.53
3,C12G A29U A46U C124A,-1.77
4,C12A A18U C56U C79U C115U A118C U131C,-3.23
5,C12A U55A G122A U126A,-5.02
6,C12A U33G G48A A119G,-5.25
7,C11U G17U G48A C114G,-6.05
8,C12A C85G U116C,-3.68
9,C11U G57U,-0.202
10,C12A U133G,-1.24
11,C11U G60C A84U,-0.912
12,C12A C53U C56G G135A,-2.18
13,C12A C64G C98G A103U A119G,-6.93
14,C12G A41U A83U G113C,-3.27
15,C12G A41C C82U,-0.401
16,C12A G51U G77A,-1.98
17,C12A C15U G48C U92C U96A G122A,-4.12
18,C12A G120A U126G,0.354
19,C12A C62G U78C C79A C85G,-7.47
20,C12G A29U G39U U55G,-2.45
21,C11U G42A U96A,-3.35

row,Variant,polymerase ribozyme fitness (log ratio)
1,C12A U81A,-1.96
2,C12A C40U C99U,-4.15
3,C12A C86G C123A,0.105
4,C12A C20U G47U,-4.43
5,C12A G120C A121U,1.87
6,C12A C28U G63C,-2.37
7,C11U U38G G57U G69C A74G G110A,-7.09
8,C12A C76A C82A U92G,-4.72
9,C11U U54A G60A G110C A121U,-4.92
10,C12A C114U G135A,-3.81
11,C12A C13A C72U U92C G117A A121U C123U,-1.56
12,C11U G48A U59A G69U C88G G135U,-3.32
13,C11U G69U A121G,2.01
14,C12A G42A C88U C114A G120A,-2.22
15,C12A U96A A121G,-0.355
16,C12G A27G,-1.67
17,C11U G39C,-1.05
18,C12A C76U U106A,-1.29
19,C12A G52A A91G,-1.2
20,C11U U55C A121G,1.39
21,C12A C73U C76A G120C,-0.37
